For experiment [1], the target named is T1, rat CD47 on rat red blood cells (rat, UniProt P97829 19-303).
T1 construct: whole, on cells; also called Rat RBCs
T1 sequence (looked up): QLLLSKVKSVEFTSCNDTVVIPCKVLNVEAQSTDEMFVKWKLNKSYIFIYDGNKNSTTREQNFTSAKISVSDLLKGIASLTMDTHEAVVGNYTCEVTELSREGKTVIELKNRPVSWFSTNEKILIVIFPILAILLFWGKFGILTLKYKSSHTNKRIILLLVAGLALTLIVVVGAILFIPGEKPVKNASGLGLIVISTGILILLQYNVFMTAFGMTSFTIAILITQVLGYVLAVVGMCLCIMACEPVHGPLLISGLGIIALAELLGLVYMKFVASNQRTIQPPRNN
Put plainly: flow cytometry on rat RBCs. As to the method: The species specificity of the chimeric anti-human CD47 monoclonal antibodies was determined by flow cytometer FACS. Normal human RBCs internally donated, cynomolgus RBCs, rat RBCs and mouse RBCs were collected, washed once with cold PBS (GIBCO, Catalog number 14190) containing 2% FBS (Hyclone, Catalog number SH30084.03). The RBCs (2×10⁶ cells per tube) were resuspended in 100 μL of cold PBS containing 2% FBS, and the serially diluted anti-human CD47 antibody samples and the control CC-90002 and the isotype control were added therein. Flow tubes were incubated on ice for 30 minutes. The cells were washed twice with PBS containing 2% FBS. Then the pellets were resuspended in 200 μL of cold PBS containing 2% FBS and FITC-labeled anti-human IgG antibody diluted 1:1000 (Beijing Zhongshan Golden Bridge, Catalog number ZF0306), incubated on ice for 30 minutes in the dark. The cells were washed twice with PBS containing 2% FBS, then resuspended in 500 μL of cold PBS. The cell suspension obtained was detected and analyzed on a flow cytometer (BD, FACS Calibur), and the fluorescence intensities of the RBCs were read.

A further experiment addresses T2, recombinant human CD47 (human, UniProt Q08722 19-139).
T2 construct: also called antigen CD47
In words: SPR, Biacore X100, antibody captured on Protein A chip, CD47 as analyte. The source says:
Biacore X100 instrument (purchased from GE) was used to detect the kinetic constant of the chimeric anti-human CD47 monoclonal antibodies binding to its antigen human CD47. This instrument utilizes optical surface plasmon resonance technology to detect the association and dissociation between the molecules coated on the biochip and the molecules to be tested. The main reagent used is Protein A chip (GE Healthcare, 29-1275-57). The experimental procedure is briefly described as follows: the chimeric anti-human CD47 antibodies were diluted in running buffer (1×HBS-EP+10 mM HEPES, 150 mM NaCl, 3 mM EDTA, 0.05% surfactant P20, pH7.4). During the capture-binding phase, the antibodies at a concentration of 2 μg/mL were injected for 60 seconds at a speed of 10 μL/min. During the binding phase, the antigen CD47 was diluted into multiple concentrations with running buffer, injected for 120 seconds at a speed of 30 μL/min respectively. During the dissociation phase, running buffer was injected for 600 seconds at a speed of 10 μL/min. The regeneration condition is 10 mM glycinate solution, pH1.5. Association kinetic constants and dissociation kinetic constants were analyzed and calculated by Biacore X100 evaluation software. The association kinetic constants, dissociation kinetic constants and dissociation equilibrium constants of the chimeric anti-human CD47 antibodies were shown in Table 7.
On the technique in general: Surface plasmon resonance follows binding to a sensor surface in real time, without labels.

For another experiment, the target named is T3, recombinant rat CD47 (rat, UniProt P97829 19-140, limits assumed).
T3 sequence (looked up): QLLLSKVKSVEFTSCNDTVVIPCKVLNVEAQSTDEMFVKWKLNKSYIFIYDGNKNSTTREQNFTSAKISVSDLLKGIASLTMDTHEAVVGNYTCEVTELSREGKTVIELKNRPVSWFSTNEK
In words: ELISA, plate coated with 1 µg/mL recombinant rat CD47, anti-human IgG-HRP, OD450. As to the method:
Species specificity of the chimeric anti-human CD47 mAbs was determined by ELISA. A 96-well high-adsorption ELISA plate was coated with 1 μg/mL of the recombinant human CD47, cynomolgus CD47, rat CD47 and mouse CD47, at 100 μL per well using carbonate buffer solution, pH=9.6 at 4° C. overnight. The plate was washed 5 times with PBST, and then blocked using PBST with 1% BSA, 300 μL/well, and incubated at 25° C. for 1 hour, and then washed 5 times with PBST. The chimeric anti-human CD47 antibody samples serially diluted in PBST with 1% BSA were added, 100 μL/well, incubated at 25° C. for 1 hour, and then washed 5 times with PBST. The horseradish peroxidase-labeled anti-human IgG antibody (Chemicon, catalog number AP309P) diluted 1:10000 in PBST with 1% BSA was then added, 100 μL per well, and incubated at 25° C. for 1 hour. The plate was washed 5 times with PBST. The colorimetric substrate TMB was added, 100 μL/well, and developed at room temperature for 10 minutes. 1M H₂SO₄ was added, 100 μL/well, to stop the development. The absorbance at 450 nm was read on a microplate reader.
In general terms: An ELISA detects its analyte on a solid surface through an enzyme-linked reagent.

The target of another experiment is T4, B7-H1 (human, UniProt Q9NZQ7).
T4 construct: recombinant protein; also called PD-L1
In words: ELISA, plate coated with 1 µg/mL recombinant human protein, anti-human IgG-HRP, OD450; antibody concentration not given.

The target in experiment [2] is T5, recombinant human CD47-Fc protein (ACROBiosystems, catalog number CD7-H52A5) (human, UniProt Q08722 19-139).
T5 construct: bought; not shown: Fc part of a bought fusion protein, not described
In words: blocking ELISA: plate coated with human CD47-Fc, 2 nM biotin-labelled SIRPα as the blocked ligand, falling OD450 curve; the sheet labels the half-maximal value EC50. As to the method: A 96-well high-adsorption ELISA plate was coated with 1 μg/mL of the recombinant human CD47-Fc (ACROBiosystems) at 100 μL per well using carbonate buffer solution, pH=9.6 at 4° C. overnight. The plate was washed 5 times with PBST, and then blocked using PBST with 1% BSA, 300 μL/well, and incubated at 25° C. for 1 hour, and then washed 5 times with PBST. The anti-human CD47 antibody samples were added, 50 μL/well, the biotin-labelled SIRPα (ACROBiosystems) was added at a concentration of 4 nM (a final concentration of 2 nM), 50 μL/well, incubated at 25° C. for 90 minutes, and then washed 5 times with PBST. The Streptavidin-HRP (BD Pharmingen, catalog number 554066) diluted 1:1000 in PBST with 1% BSA was then added, 100 μL per well, and incubated at 25° C. for 1 hour. The plate was washed 5 times with PBST. The colorimetric substrate TMB was added, 100 μL/well, and developed at room temperature for 10 minutes. 1M H₂SO₄ was added, 100 μL/well, to stop the development. The absorbance at 450 nm was read on a microplate reader.

From patent US20250277031A1 (BEIJING HANMI PHARMACEUTICAL, published 2025) come the findings set out here.

T2 sequence (Q08722 19-139 limits assumed): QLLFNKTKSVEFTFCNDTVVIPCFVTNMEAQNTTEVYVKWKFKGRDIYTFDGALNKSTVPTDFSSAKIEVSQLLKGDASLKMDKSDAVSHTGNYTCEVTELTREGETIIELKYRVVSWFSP
T5 sequence (Q08722 19-139 limits assumed): as above
T4 sequence (Q9NZQ7 19-238 limits assumed): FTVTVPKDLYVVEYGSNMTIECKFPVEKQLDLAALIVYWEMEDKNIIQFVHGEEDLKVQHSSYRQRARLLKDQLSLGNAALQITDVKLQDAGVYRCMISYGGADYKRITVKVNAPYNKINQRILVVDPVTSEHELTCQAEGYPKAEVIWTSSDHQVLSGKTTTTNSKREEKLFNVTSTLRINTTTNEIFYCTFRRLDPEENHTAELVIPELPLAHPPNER

B1: chimeric anti-human CD47 monoclonal antibody mAb-18-5 (antibody, human IgG1, kappa)
heavy: not shown
light: DIVMTQSQKFMSTSVGDRVSITCKASQNVRTSIAWYQQKSGQSPKTLIYLASNRHTGVPDRFTGSGSGTDFTLTISNVQSEDLADYFCLQHWNYPFTFGSGTKLEIKRTVAAPSVFIFPPSDEQLKSGTASVVCLLNNFYPREAKVQWKVDNALQSGNSQESVTEQDSKDSTYSLSSTLTLSKADYEKHKVYACEVTHQGLSSPVTKSFNRGEC
As for B1, the binding result in experiment [1] is “no binding”. In addition, in the experiment with recombinant human CD47, the Kd was 0.693 nM, the koff stood at 0.000823 s⁻¹ and the kon turned out to be 1.19e+06 M⁻¹ s⁻¹. The binding result with recombinant rat CD47 is reported as “no binding (tested: about 20 nM)”. Also, the binding result in the experiment with B7-H1 is recorded as “no binding”. Moreover, the IC50 in experiment [2] stood at 1.86 nM.

A word on the Kd: it is the concentration at which binding is half-saturated. As a reminder, the koff is the rate constant with which the complex falls apart. Broadly, the kon is a measure of how fast the partners come together. What is called IC50 is the concentration that gives 50% inhibition.
